The supplement of paper PMC10724198
± gives the standard deviation of the averaged measurements.

Tested on: Saccharomyces cerevisiae
Assay: protein stability index of tFT-peptide fusion (C-terminal peptide) (PSI (0-1 scale)); higher = more stable (slower turnover)
Details: genetic background: wild type; temperature: 30 C
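Also: PSI is a weighted mean of sequencing reads over stability bins, variants kept only with over 10 reads, mCherry proximal and sfGFP distal, peptide attached via GGGS linker.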

In order of rising protein stability index:
1. VRWLLTSHARLT  0.484 ± 0.12
2. IRHTQVSHIIYA  0.488 ± 0.029
3. FLLFSSFYFCFP  0.497 ± 0.062
4. GGLLSTVVVRVL  0.524 ± 0.022
5. SQGDVLLFMFLW  0.548 ± 0.033
6. LFYFPVLSGFLA  0.578 ± 0.002
7. CKGIGLGGGVVS  0.599 ± 0.033
8. RVSRSCCATGEG  0.599 ± 0.019
9. VPVALWEAPAVH  0.601 ± 0.013
10. LCSRICGVVARA  0.613 ± 0.042
11. PPLPNLVYHLST  0.6195 ± 0.0054
12. QPPPPRLPPRPP  0.622 ± 0.0027
13. SSQLKMESLFII  0.624 ± 0.064
14. DRWIGLWGGLWV  0.63 ± 0.018
15. LTLCRSPMSLRA  0.633 ± 0.12
16. GGGVVRGLEQRA  0.637 ± 0.074
17. LLLSQSSFCLTC  0.637 ± 0.046
18. RVNERNAEAGGD  0.641 ± 0.043
19. ESRARCGEQAIY  0.641 ± 0.066
20. GCRRGFRKGQDC  0.645 ± 0.023
21. QSSWVGRGVRGG  0.647 ± 0.014
22. AGGGCALGDGWS  0.649 ± 0.021
23. AGGGKGGGGGEK  0.649 ± 0.029
24. LFCVAPLGSVSY  0.652 ± 0.033
25. NMPIGVRLLLGR  0.652 ± 0.011
26. GAGGGSGGGQPG  0.656 ± 0.032
27. GYAGAIMAGYDP  0.656 ± 0.033
28. MQLTRKEEKSQE  0.658 ± 0.023
29. SGHRPPRVAVDS  0.66 ± 0.044
30. AAPSRASDLARP  0.661 ± 0.087
31. KQKNKTNKKNTK  0.661 ± 0.025
32. IRKNWQRIGETA  0.662 ± 0.026
33. IRQTIEGRRLVM  0.662 ± 0.026
34. GRYRRRLPLCRG  0.663 ± 0.055
35. QARKGPISSCRP  0.664 ± 0.067
36. PQNTNNPENGHC  0.667 ± 0.04
37. VKTNPEGDGKQE  0.671 ± 0.021
38. PRPGQPFSRFRF  0.6724 ± 0.0054
39. TTTQIIRISKSR  0.673 ± 0.044
40. ENCDSAEPGTRV  0.676 ± 0.033
41. EVSGRCRRPDDQ  0.679 ± 0.041
42. DDGRDTLCGRGS  0.68 ± 0.042
43. GFVQGNNGFLMK  0.682 ± 0.034
44. AGAGRGVVLGWW  0.684 ± 0.017
45. FVSTSFPPWFSL  0.684 ± 0.019
46. RSRGARMPTTPT  0.684 ± 0.034
47. RNAGYPALDELS  0.6861 ± 0.0047
48. ASRKRKVAQESR  0.688 ± 0.03
49. LSRGPYRPHVNP  0.69 ± 0.051
50. LYPSFSHTPPPT  0.69 ± 0.056
51. FWECEYVIDDVD  0.69053 ± 0.00035
52. FPLPHPCPPPPP  0.694 ± 0.017
53. LAGSHSRTQGRT  0.695 ± 0.037
54. TYTPQVSSVFPI  0.698 ± 0.018
55. IPTVSLLHLPPV  0.699 ± 0.047
56. AERGRMLSEGKW  0.701 ± 0.053
57. GRGSCVRISSEG  0.706 ± 0.028
58. PPTHPPPRLTPL  0.707 ± 0.081
59. LSHAHLSPTSSA  0.708 ± 0.088
60. LPPHSPALRLPR  0.708 ± 0.0097
61. KKKKVKKQRISR  0.713 ± 0.11
62. PQSKWLTTFRQK  0.713 ± 0.095
63. APDPPGLRGLSP  0.719 ± 0.015
64. LPPPPSPESPLS  0.722 ± 0.045
65. LWGVVVGELGSC  0.723 ± 0.074
66. RAGRVRAPGRWP  0.728 ± 0.017
67. PPAPPPLPPPPP  0.729 ± 0.0092
68. CWVNDGCPICGW  0.732 ± 0.072
69. HQFRPYPLFTAR  0.733 ± 0.013
70. VWSSCAGDVLFD  0.734 ± 0.039
71. ACPLPPLPTPLP  0.736 ± 0.04
72. QPPAKSRETKYR  0.741 ± 0.031
73. EVDKKYRNRKRK  0.744 ± 0.019
74. SSRPPPVLTPAR  0.745 ± 0.044
75. PPAPPPPTGLCL  0.755 ± 0.092
76. FLGRFLTGALWV  0.758 ± 0.12
77. GPPFAPASPVPL  0.761 ± 0.038
78. GRPRSSAVARSA  0.769 ± 0.036
79. KKGACTQILQSL  0.789 ± 0.19
80. FLSCLLERSWSL  0.79 ± 0.044
81. DLTPWLAPFRER  0.797 ± 0.097
